From IntAct's records for PubMed 24115911

B1: Urease accessory protein UreF (Helicobacter pylori), Q09065 (parent)
chain: MDKGKSVKSTEKSVGMPPKTPKTDNNAHVDNEFLILQVNDAVFPIGSYTHSFGLETYIQQKKVTNKESALEYLKANLSSQFLYTEMLSLKLTYESALQQDLKKILGVEEVIMLSTSPMELRLANQKLGNRFIKTLQAMNELDMGEFFNAYAQKTKDPTHATSYGVFAASLGIELKKALRHYLYAQTSNMVINCVKSVPLSQNDGQKILLSLQSPFNQLIEKTLELDESHLCTASVQNDIKAMQHESLYSRLYMS

Variants of: B1
Conditions: with ureg_helpy ureG
In the case of MDKGKSVKSTEKSVGMPPKTPKTDNNAHVDNEFLILQVNDAVFPIGSYTHSFGLETYIQQKKVTNKESALEYLKANLSSQFLYTEMLSLKLTYESALQQDLKKILGVEEVIMLSTSPMELRLANQKLGNRFIKTLQAMNELDMGEFFNAYAQKTKDPTHATSYGVFAASLGIELKKALAHYLDAQTSNMVINCVKSVPLSQNDGQKILLSLQSPFNQLIEKTLELDESHLCTASVQNDIKAMQHESLYSRLYMS [R179A;Y183D], the “effect of a mutation on the interaction” value is reported as “disrupting interaction strength”.
